# Results: the RNAGym collection of RNA variant scans (doi:10.1101/gr.219683.116)
# B1: mRNA-splicing (parent)
# chain: AGUUGCUGCUGGGAGCUCCAGCACAGUGAAAUGGACAGAAGGGCAGAGCAA
# Variants of: B1
# Assay: exon inclusion enrichment index; higher = more inclusion; WT1 exon 5 minigene, HEK293
row,Variant,exon inclusion enrichment index
1,AGUUACCACCGGGAGCUCCAGCACAGUGAAAUGGACAAGAGGGCAGAGCAA [G5A U7C G8A U10C G38A A39G],2.26
2,AGUUACCACCGGGAGCUCCAGCACAGUGAAAUGGACAGAAGGGCACGGCAA [G5A U7C G8A U10C G46C A47G],2.57
3,AGUUACCACCGGGAGCUCCAGCACAGUGAAAUGGACAGAAGGGCACCGCAA [G5A U7C G8A U10C G46C A47C],1.81
4,AGUUACCACCGGGAGCUCCAGCACAGUGAAAUGGACAGAAGGGCACUGCAA [G5A U7C G8A U10C G46C A47U],2.03
5,AGUUACCACCGGGAGCUCCAGCACAGUGAAAUGGACAGAAGGGCAACGCAA [G5A U7C G8A U10C G46A A47C],3.08
6,AGUUACCACCGGGAGCUCCAGCACAGUGAAAUGGACAGAAGGGCAAGGCAA [G5A U7C G8A U10C G46A A47G],0.953
7,AGUUACCACCGGGAGCUCCAGCACAGUGAAAUGGACAGAAGGGCAAUGCAA [G5A U7C G8A U10C G46A A47U],2.29
8,AGUUACCACCGGGAGCUCCAGCACAGUGAAAUUAACAGAAGGGCAGAGCAA [G5A U7C G8A U10C G33U G34A],0.441
9,AGUUACCACCGGGAGCUCCAGCACAGUGAAAUUCACAGAAGGGCAGAGCAA [G5A U7C G8A U10C G33U G34C],0.815
10,AGUUACCACCGGGAGCUCCAGCACAGUGAAAUUUACAGAAGGGCAGAGCAA [G5A U7C G8A U10C G33U G34U],0.351
11,AGUUACCACCGGGAGCUCCAGCACAGUGAAAUGGACAGAAGAUCAGAGCAA [G5A U7C G8A U10C G42A G43U],4.5
12,AGUUACCACCGGGAGCUCCAGCACAGUGAAAUGGACAGAAGAACAGAGCAA [G5A U7C G8A U10C G42A G43A],4.61
13,AGUUACCACCGGGAGCUCCAGCACAGUGAAAUGGACAGAAGACCAGAGCAA [G5A U7C G8A U10C G42A G43C],4.19
14,AGUUACCACCGGGAGCUCCAGCACAGUGAAAUGGACACCAGGGCAGAGCAA [G5A U7C G8A U10C G38C A39C],2.25
15,AGUUACCACCGGGAGCUCCAGCACAGUGAAAUGGACACUAGGGCAGAGCAA [G5A U7C G8A U10C G38C A39U],0.229
16,AGUUACCACCGGGAGCUCCAGCACAGUGAAAUGGACACGAGGGCAGAGCAA [G5A U7C G8A U10C G38C A39G],2.15
17,AGUUACCACCGGGAGCUCCAGCACAGUGAAAUGGACAGAACGGCAGAGCAA [G5A U7C G8A U10C G41C],3.34
18,AGUUACCACCGGGAGCUCCAGCACAGUGAAAUGGACAGAAAGGCAGAGCAA [G5A U7C G8A U10C G41A],1.44
19,AGUUACCACCGGGAGCUCCAGCACAGUGAAAUGGACAGAAUGGCAGAGCAA [G5A U7C G8A U10C G41U],2.09
20,AGUUACCACCGGGAGCUCCAGCACAGUGAAAUGGACAGAAGGAAAGAGCAA [G5A U7C G8A U10C G43A C44A],3.99
21,AGUUACCACCGGGAGCUCCAGCACAGUGAAAUGGACAGAAGGAGAGAGCAA [G5A U7C G8A U10C G43A C44G],4.11
22,AGUUACCACCGGGAGCUCCAGCACAGUGAAAUGGACAGAAGGAUAGAGCAA [G5A U7C G8A U10C G43A C44U],2.57
23,AGUUACCACCGGGAGCUCCAGCACAGUGAAAUGGACAUCAGGGCAGAGCAA [G5A U7C G8A U10C G38U A39C],1.83
24,AGUUACCACCGGGAGCUCCAGCACAGUGAAAUGGACAUUAGGGCAGAGCAA [G5A U7C G8A U10C G38U A39U],0.126
25,AGUUACCACCGGGAGCUCCAGCACAGUGAAAUGGACAUGAGGGCAGAGCAA [G5A U7C G8A U10C G38U A39G],1.15
26,AGUUACCACCGGGAGCUCCAGCACAUGGAAAUGGACAGAAGGGCAGAGCAA [G5A U7C G8A U10C G26U U27G],3.47

row,Variant,exon inclusion enrichment index
1,AGUUACCACCGGGAGCUCCAGCACAGUGAAAUGAACAGAAGGGCAGAGCAA [G5A U7C G8A U10C G34A],1.51
2,AGUUACCACCGGGAGCUCCAGCACAGUGAAAUGCACAGAAGGGCAGAGCAA [G5A U7C G8A U10C G34C],0.949
3,AGUUACCACCGGGAGCUCCAGCACAGUGAAAUGUACAGAAGGGCAGAGCAA [G5A U7C G8A U10C G34U],0.607
4,AGUUACCACCGGGAGCUCCAGCACAGUGAAAUGGACAGAAGGGCAGACCAA [G5A U7C G8A U10C G48C],2.4
5,AGUUACCACCGGGAGCUCCAGCACAGUGAAAUGGACAGAAGGGCAGAUCAA [G5A U7C G8A U10C G48U],2.83
6,AGUUACCACCGGGAGCUCCAGCACAGUGAAAUGGACAGAAGGGCAGAACAA [G5A U7C G8A U10C G48A],2.99
7,AGUUACCACCGGGAGCUCCAGCACAGUGAAAUGGACAGAAGUACAGAGCAA [G5A U7C G8A U10C G42U G43A],3.16
8,AGUUACCACCGGGAGCUCCAGCACAGUGAAAUGGACAGAAGUCCAGAGCAA [G5A U7C G8A U10C G42U G43C],1.5
9,AGUUACCACCGGGAGCUCCAGCACAGUGAAAUGGACAGAAGUUCAGAGCAA [G5A U7C G8A U10C G42U G43U],3.03
10,AGUUACCACCGGGAGCUCCAGCACAGUGAAAUGGACAGAAGGUUAGAGCAA [G5A U7C G8A U10C G43U C44U],0.735
11,AGUUACCACCGGGAGCUCCAGCACAGUGAAAUGGACAGAAGGUAAGAGCAA [G5A U7C G8A U10C G43U C44A],0.058
12,AGUUACCACCGGGAGCUCCAGCACAGUGAAAUGGACAGAAGGUGAGAGCAA [G5A U7C G8A U10C G43U C44G],0.5
13,AGUUACCACCGGGAGCUCCAGCACAGUACAAUGGACAGAAGGGCAGAGCAA [G5A U7C G8A U10C G28A A29C],1.44
14,AGUUACCACCGGGAGCUCCAGCACAGUAGAAUGGACAGAAGGGCAGAGCAA [G5A U7C G8A U10C G28A A29G],1.02
15,AGUUACCACCGGGAGCUCCAGCACAGUAUAAUGGACAGAAGGGCAGAGCAA [G5A U7C G8A U10C G28A A29U],0.513
16,AGUUACCACCGGGAGCUCCAGCACAGUGAAAUGGACAGAAGCUCAGAGCAA [G5A U7C G8A U10C G42C G43U],3.18
17,AGUUACCACCGGGAGCUCCAGCACAGUGAAAUGGACAGAAGCACAGAGCAA [G5A U7C G8A U10C G42C G43A],3
18,AGUUACCACCGGGAGCUCCAGCACAGUGAAAUGGACAGAAGCCCAGAGCAA [G5A U7C G8A U10C G42C G43C],3.5
19,AGUUACCACCGGGAGCUCCAGCACAGUGAAAUCAACAGAAGGGCAGAGCAA [G5A U7C G8A U10C G33C G34A],1.53
20,AGUUACCACCGGGAGCUCCAGCACAGUGAAAUCCACAGAAGGGCAGAGCAA [G5A U7C G8A U10C G33C G34C],1.34
21,AGUUACCACCGGGAGCUCCAGCACAGUGAAAUCUACAGAAGGGCAGAGCAA [G5A U7C G8A U10C G33C G34U],1.72
22,AGUUACCACCGGGAGCUCCAGCACAGUUCAAUGGACAGAAGGGCAGAGCAA [G5A U7C G8A U10C G28U A29C],1.47
23,AGUUACCACCGGGAGCUCCAGCACAGUUUAAUGGACAGAAGGGCAGAGCAA [G5A U7C G8A U10C G28U A29U],0.443
24,AGUUACCACCGGGAGCUCCAGCACAGUUGAAUGGACAGAAGGGCAGAGCAA [G5A U7C G8A U10C G28U A29G],2.07
25,AGUUACCACCGGGAGCACCAGCACAGUGAAAUGGACAGAAGGGCAGAGCAA [G5A U7C G8A U10C U17A],1.89
